In patent US20200199241A1 (Chugai, published 2020) one finds Kd data, which are given here for 55 molecules.

Substitutions are numbered along the chain they refer to.

B1: IgG1-F178 (antibody)
heavy: QVQLQESGPGLVKPSETLSLTCAVSGHSISHDHAWSWVRQPPGEGLEWIGFISYSGITNYNPSLQGRVTISRDNSKNTLYLQMNSLRAEDTAVYYCARSLARTTAMDYWGEGTLVTVSSASTKGPSVFPLAPSSKSTSGGTAALGCLVKDYFPEPVTVSWNSGALTSGVHTFPAVLQSSGLYSLSSVVTVPSSSLGTQTYICNVNHKPSNTKVDKKVEPKSCDKTHTCPPCPAPELLGGPSVFLFPPKPKDTLWISRTPEVTCVVVDVSHEFPEVKFNWYVDGVEVHNAKTKPREEQYNSTYRVVSVLTVLHQDWLNGKEYKCKVSNKALPAPIEKTISKAKGQPREPQVYTLPPSRDELTKNQVSLTCLVKGFYPSDIAVEWESNGQPENNYKTTPPVLDSDGSFFLYSKLTVDKSRWQQGNVFSCSVMHEALHYHYTQKSLSLSP
light: not shown
notes: EU numbering; copies: 2 + 2
B2: IgG1-F251 (antibody)
heavy: B1 heavy with W254Y, F272D, M430V
light: not shown
notes: EU numbering; copies: 2 + 2
B3: IgG1-F247 (antibody)
heavy: B1 heavy with W254Y, F272D, M430Q
light: not shown
notes: EU numbering; copies: 2 + 2
B4: IgG1-F228 (antibody)
heavy: B1 heavy with W254Y, F272D, L311E
light: not shown
notes: EU numbering; copies: 2 + 2
B5: IgG1-F198 (antibody)
heavy: B1 heavy with W254M, P259V, F272D, T309Q, M430L
light: not shown
notes: EU numbering; copies: 2 + 2
B6: IgG1-F229 (antibody)
heavy: B1 heavy with W254Y, R257E, F272D
light: not shown
notes: EU numbering; copies: 2 + 2
B7: IgG1-F210 (antibody)
heavy: B1 heavy with W254Y, F272D, T309N
light: not shown
notes: EU numbering; copies: 2 + 2
B8: IgG1-F194 (antibody)
heavy: B1 heavy with W254M, P259V, F272D, T309A, M430L
light: not shown
notes: EU numbering; copies: 2 + 2
B9: IgG1-F206 (antibody)
heavy: B1 heavy with W254Y, F272D, T309I
light: not shown
notes: EU numbering; copies: 2 + 2
B10: IgG1-F204 (antibody)
heavy: B1 heavy with W254Y, F272D, T309G
light: not shown
notes: EU numbering; copies: 2 + 2
B11: IgG1-F218 (antibody)
heavy: B1 heavy with W254Y, F272D, G387H
light: not shown
notes: EU numbering; copies: 2 + 2
B12: IgG1-F192 (antibody)
heavy: B1 heavy with W254M, P259A, F272D, T309A, M430L
light: not shown
notes: EU numbering; copies: 2 + 2
B13: IgG1-F227 (antibody)
heavy: B1 heavy with W254Y, F272D, N288E
light: not shown
notes: EU numbering; copies: 2 + 2
B14: IgG1-F244 (antibody)
heavy: B1 heavy with W254Y, F272D, M430K
light: not shown
notes: EU numbering; copies: 2 + 2
B15: IgG1-F208 (antibody)
heavy: B1 heavy with W254Y, F272D, T309L
light: not shown
notes: EU numbering; copies: 2 + 2
B16: IgG1-F182 (antibody)
heavy: B1 heavy with W254M, P259A, F272D, M430L, Y436W
light: not shown
notes: EU numbering; copies: 2 + 2
B17: IgG1-F230 (antibody)
heavy: B1 heavy with W254Y, F272D, P389E
light: not shown
notes: EU numbering; copies: 2 + 2
B18: IgG1-F217 (antibody)
heavy: B1 heavy with W254Y, F272D, K336L
light: not shown
notes: EU numbering; copies: 2 + 2
B19: IgG1-F211 (antibody)
heavy: B1 heavy with W254Y, F272D, T309P
light: not shown
notes: EU numbering; copies: 2 + 2
B20: IgG1-F226 (antibody)
heavy: B1 heavy with W254Y, F272D, L316K
light: not shown
notes: EU numbering; copies: 2 + 2
B21: IgG1-F245 (antibody)
heavy: B1 heavy with W254Y, F272D, M430N
light: not shown
notes: EU numbering; copies: 2 + 2
B22: IgG1-F190 (antibody)
heavy: B1 heavy with W254Y, F272D, T309Q
light: not shown
notes: EU numbering; copies: 2 + 2
B23: IgG1-F209 (antibody)
heavy: B1 heavy with W254Y, F272D, T309M
light: not shown
notes: EU numbering; copies: 2 + 2
B24: IgG1-F205 (antibody)
heavy: B1 heavy with W254Y, F272D, T309H
light: not shown
notes: EU numbering; copies: 2 + 2
B25: IgG1-F193 (antibody)
heavy: B1 heavy with W254M, P259T, F272D, T309A, M430L
light: not shown
notes: EU numbering; copies: 2 + 2
B26: IgG1-F241 (antibody)
heavy: B1 heavy with W254Y, F272D, M430G
light: not shown
notes: EU numbering; copies: 2 + 2
B27: IgG1-F246 (antibody)
heavy: B1 heavy with W254Y, F272D, M430P
light: not shown
notes: EU numbering; copies: 2 + 2
B28: IgG1-F184 (antibody)
heavy: B1 heavy with W254M, P259V, F272D, M430L, Y436W
light: not shown
notes: EU numbering; copies: 2 + 2
B29: IgG1-F196 (antibody)
heavy: B1 heavy with W254M, P259A, F272D, T309Q, M430L
light: not shown
notes: EU numbering; copies: 2 + 2
B30: IgG1-F219 (antibody)
heavy: B1 heavy with W254Y, F272D, T291H
light: not shown
notes: EU numbering; copies: 2 + 2
B31: IgG1-F249 (antibody)
heavy: B1 heavy with W254Y, F272D, M430S
light: not shown
notes: EU numbering; copies: 2 + 2
B32: IgG1-F179 (antibody)
heavy: B1 heavy with F272D, N327G
light: not shown
notes: EU numbering; copies: 2 + 2
B33: IgG1-F250 (antibody)
heavy: B1 heavy with W254Y, F272D, M430T
light: not shown
notes: EU numbering; copies: 2 + 2
B34: IgG1-F214 (antibody)
heavy: B1 heavy with W254Y, F272D, T309V
light: not shown
notes: EU numbering; copies: 2 + 2
B35: IgG1-F240 (antibody)
heavy: B1 heavy with W254Y, F272D, M430F
light: not shown
notes: EU numbering; copies: 2 + 2
B36: IgG1-F236 (antibody)
heavy: B1 heavy with K250I, W254M, F272D, M430L
light: not shown
notes: EU numbering; copies: 2 + 2
B37: IgG1-F216 (antibody)
heavy: B1 heavy with W254Y, F272D, T309Y
light: not shown
notes: EU numbering; copies: 2 + 2
B38: IgG1-F195 (antibody)
heavy: B1 heavy with W254M, P259L, F272D, T309Q, M430L
light: not shown
notes: EU numbering; copies: 2 + 2
B39: IgG1-F215 (antibody)
heavy: B1 heavy with W254Y, F272D, T309W
light: not shown
notes: EU numbering; copies: 2 + 2
B40: IgG1-F238 (antibody)
heavy: B1 heavy with W254Y, F272D, M430D
light: not shown
notes: EU numbering; copies: 2 + 2
B41: IgG1-F213 (antibody)
heavy: B1 heavy with W254Y, F272D, T309S
light: not shown
notes: EU numbering; copies: 2 + 2
B42: IgG1-F212 (antibody)
heavy: B1 heavy with W254Y, F272D, T309R
light: not shown
notes: EU numbering; copies: 2 + 2
B43: IgG1-F243 (antibody)
heavy: B1 heavy with W254Y, F272D, M430I
light: not shown
notes: EU numbering; copies: 2 + 2
B44: IgG1-F220 (antibody)
heavy: B1 heavy with W254Y, F272D, Q313H
light: not shown
notes: EU numbering; copies: 2 + 2
B45: IgG1-F221 (antibody)
heavy: B1 heavy with W254Y, F272D, D314H
light: not shown
notes: EU numbering; copies: 2 + 2
B46: IgG1-F223 (antibody)
heavy: B1 heavy with W254Y, F272D, K362H
light: not shown
notes: EU numbering; copies: 2 + 2
B47: IgG1-F242 (antibody)
heavy: B1 heavy with W254Y, F272D, M430H
light: not shown
notes: EU numbering; copies: 2 + 2
B48: IgG1-F225 (antibody)
heavy: B1 heavy with W254Y, F272D, L316R
light: not shown
notes: EU numbering; copies: 2 + 2
B49: IgG1-F201 (antibody)
heavy: B1 heavy with W254Y, F272D, T309D
light: not shown
notes: EU numbering; copies: 2 + 2
B50: IgG1-F191 (antibody)
heavy: B1 heavy with W254M, P259L, F272D, T309A, M430L
light: not shown
notes: EU numbering; copies: 2 + 2
B51: IgG1-F189 (antibody)
heavy: B1 heavy with W254Y, F272D, T309A
light: not shown
notes: EU numbering; copies: 2 + 2
B52: IgG1-F183 (antibody)
heavy: B1 heavy with W254M, P259T, F272D, M430L, Y436W
light: not shown
notes: EU numbering; copies: 2 + 2
B53: IgG1-F203 (antibody)
heavy: B1 heavy with W254Y, F272D, T309F
light: not shown
notes: EU numbering; copies: 2 + 2
B54: IgG1-F222 (antibody)
heavy: B1 heavy with W254Y, F272D, N317H
light: not shown
notes: EU numbering; copies: 2 + 2
B55: IgG1-F237 (antibody)
heavy: B1 heavy with W254Y, F272D, M430A
light: not shown
notes: EU numbering; copies: 2 + 2

For orientation: Kd means the concentration at which binding is half-saturated. A high value points to a looser complex.

T1 sequence (chain, as listed by the source limits assumed, chain 1 of 2): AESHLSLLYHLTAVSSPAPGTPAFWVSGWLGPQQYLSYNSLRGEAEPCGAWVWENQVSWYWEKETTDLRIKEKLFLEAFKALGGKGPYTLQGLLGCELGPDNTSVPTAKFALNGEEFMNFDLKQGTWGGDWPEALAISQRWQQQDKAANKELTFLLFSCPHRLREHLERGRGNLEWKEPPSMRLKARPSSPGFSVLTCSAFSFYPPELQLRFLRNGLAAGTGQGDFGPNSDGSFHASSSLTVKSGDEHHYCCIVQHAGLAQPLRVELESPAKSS
T1 sequence (P61769 21-119 limits assumed, chain 2 of 2): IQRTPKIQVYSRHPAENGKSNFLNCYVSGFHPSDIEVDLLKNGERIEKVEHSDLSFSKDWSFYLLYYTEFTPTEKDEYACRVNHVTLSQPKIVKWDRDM

This experiment has as its target T1, human FcRn (soluble human FcRn complexed with β2-microglobulin) (human, UniProt P61769 21-119, limits assumed).
T1 construct: also called hFcRn
Briefly: SPR, pH 7.0.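 Also: antibodies captured on a Protein L sensor chip with human FcRn injected as analyte, KD calculated from fitted association and dissociation rate constants.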
As to B1, the dissociation constant (Kd) was found to be 270 nM.
In the case of B2, the Kd came out at 190 nM.
Then B3, with 440 nM.
B4 showed a Kd of 230 nM.
Then B5, with 48 nM; and B6, with 510 nM; and B7, with 290 nM.
The molecule B8 had a dissociation constant Kd of 120 nM.
In turn, B9 returned a Kd of 230 nM.
Then B10, with 210 nM; and B11, with 260 nM.
B12 had a dissociation constant (Kd) of 110 nM.
In the case of B13, the affinity, expressed as Kd, was 120 nM.
As for B14, the figure is 1300 nM; as for B15, 390 nM; as for B16, 66 nM.
Then B17, with 250 nM; and B18, with 230 nM.
B19 came in with a dissociation constant (Kd) of 240 nM.
Then B20, with 540 nM.
Then B21, with 470 nM; and B22, with 110 nM; and B23, with 130 nM.
The molecule B24 yielded a Kd of 200 nM.
Then B25, with 85 nM.
For B26, binding was characterised by a dissociation constant (Kd) of 1500 nM.
Then B27, with 1100 nM; and B28, with 270 nM; and B29, with 35 nM.
As for B30, the figure is 250 nM; as for B31, 640 nM; as for B32, 310 nM.
Then B33, with 290 nM; and B34, with 170 nM.
Regarding B35, the Kd was determined as 720 nM.
Then B36, with 890 nM; and B37, with 230 nM; and B38, with 56 nM.
As for B39, the figure is 96 nM; as for B40, 740 nM; as for B41, 230 nM.
Then B42, with 680 nM; and B43, with 180 nM.
In the case of B44, the affinity, expressed as Kd, was 250 nM.
As for B45, the figure is 310 nM; as for B46, 270 nM.
As for B47, the figure is 850 nM.
On to B48, for which the affinity, expressed as Kd, was 1500 nM.
Then B49, with 210 nM; and B50, with 160 nM; and B51, with 190 nM.
As for B52, the figure is 220 nM; as for B53, 240 nM.
In turn, B54 gave a Kd of 340 nM.
As for B55, the figure is 230 nM.
